Test results as given in patent publication EP4289863A9.

Legend:
[1] = biological target: T1, human IL-36R (antigen of the OD450 binding screen of Table 1) (human) (UniProt Q9HB29); assay: OD450 binding screen of hybridoma supernatant, antigen not named
T1 sequence (looked up): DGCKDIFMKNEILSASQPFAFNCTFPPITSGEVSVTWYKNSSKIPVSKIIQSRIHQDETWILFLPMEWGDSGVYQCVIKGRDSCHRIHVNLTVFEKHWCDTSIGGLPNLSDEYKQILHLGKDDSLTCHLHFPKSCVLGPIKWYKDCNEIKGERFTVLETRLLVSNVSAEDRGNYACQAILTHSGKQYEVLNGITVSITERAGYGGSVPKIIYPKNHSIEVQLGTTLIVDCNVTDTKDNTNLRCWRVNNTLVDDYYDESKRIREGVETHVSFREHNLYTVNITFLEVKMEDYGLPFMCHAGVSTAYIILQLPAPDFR

[2] = biological target: monkey IL-36R (monkey); assay: flow cytometry on cells, hybridoma supernatant
[3] = biological target: human IL1R1 (human) (UniProt P14778); assay: flow cytometry on cells, hybridoma supernatant
human IL1R1 (human), sequence (P14778 18-569): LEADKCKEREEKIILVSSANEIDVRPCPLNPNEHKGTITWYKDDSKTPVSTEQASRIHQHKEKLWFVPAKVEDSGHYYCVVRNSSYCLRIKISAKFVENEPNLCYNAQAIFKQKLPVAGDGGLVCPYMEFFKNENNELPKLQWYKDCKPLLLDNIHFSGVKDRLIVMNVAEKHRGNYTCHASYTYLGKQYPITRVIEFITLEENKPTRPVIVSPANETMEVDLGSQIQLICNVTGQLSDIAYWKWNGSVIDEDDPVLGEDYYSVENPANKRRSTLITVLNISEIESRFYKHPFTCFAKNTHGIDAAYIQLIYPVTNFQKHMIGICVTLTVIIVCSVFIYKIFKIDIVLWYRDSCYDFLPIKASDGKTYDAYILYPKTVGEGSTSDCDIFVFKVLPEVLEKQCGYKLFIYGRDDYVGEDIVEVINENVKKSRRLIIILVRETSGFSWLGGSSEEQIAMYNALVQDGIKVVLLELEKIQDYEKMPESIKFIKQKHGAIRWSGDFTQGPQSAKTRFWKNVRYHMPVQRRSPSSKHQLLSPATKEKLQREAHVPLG

[4] = biological target: T2, human IL-36R (human) (UniProt Q9HB29); assay: flow cytometry on cells, hybridoma supernatant
T2 sequence (looked up): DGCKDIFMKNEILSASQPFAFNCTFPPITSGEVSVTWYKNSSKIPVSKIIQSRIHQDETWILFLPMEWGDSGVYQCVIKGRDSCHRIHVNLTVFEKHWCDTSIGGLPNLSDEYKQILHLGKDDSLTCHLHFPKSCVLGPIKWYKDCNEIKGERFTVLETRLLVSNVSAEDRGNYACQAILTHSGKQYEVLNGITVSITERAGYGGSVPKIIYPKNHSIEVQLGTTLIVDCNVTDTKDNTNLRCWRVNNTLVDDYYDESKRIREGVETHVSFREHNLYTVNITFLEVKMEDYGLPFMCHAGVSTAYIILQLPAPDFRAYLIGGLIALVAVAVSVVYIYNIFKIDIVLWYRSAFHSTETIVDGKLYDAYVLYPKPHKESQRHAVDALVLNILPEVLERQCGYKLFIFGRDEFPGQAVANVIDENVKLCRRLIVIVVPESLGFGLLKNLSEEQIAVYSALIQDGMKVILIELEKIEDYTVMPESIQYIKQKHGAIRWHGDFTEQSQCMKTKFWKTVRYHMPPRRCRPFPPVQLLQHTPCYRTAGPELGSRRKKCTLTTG

[5] = biological target: T2, human IL-36R (human); assay: cell-based or functional assay

B1: 111(1)-E5 (antibody, part only; not given: light chain, V domains shown, part only)
VH: QVQLQQTGSVLVRPGTSVKLSCKASGYTFTSSWMHWAKQRPGQGLEWIGEIHPNSAKTNYNEKFKGKATLTVDTFSSTAYVDLSSLASEDSAVYYCARVDYGKPWFAYWGQGTLVTVSA
- Binding activity OD450 value [1]: 2.16 OD450
- MFI ratio (hybridoma supernatant/positive control) [2]: 105%
- MFI ratio (hybridoma supernatant/negative control) [3]: 118%
- MFI ratio (hybridoma supernatant/positive control) [4]: 81.6%
- IL-6 ratio in blockage of human IL36β functional activity (hybridoma supernatant/positive control) [5]: 0.07%
- IL-8 ratio in blockage of human IL36α functional activity (hybridoma supernatant/positive control) [5]: -4.02%
- IL-8 ratio in blockage of human IL36β functional activity (hybridoma supernatant/positive control) [5]: -4.62%
- IL-8 ratio in blockage of human IL36γ functional activity (hybridoma supernatant/positive control) [5]: -3.86%
